The target of series [1] is T1, ALKBH2 (Homo sapiens, UniProt Q6NS38 1-261).
T1 sequence: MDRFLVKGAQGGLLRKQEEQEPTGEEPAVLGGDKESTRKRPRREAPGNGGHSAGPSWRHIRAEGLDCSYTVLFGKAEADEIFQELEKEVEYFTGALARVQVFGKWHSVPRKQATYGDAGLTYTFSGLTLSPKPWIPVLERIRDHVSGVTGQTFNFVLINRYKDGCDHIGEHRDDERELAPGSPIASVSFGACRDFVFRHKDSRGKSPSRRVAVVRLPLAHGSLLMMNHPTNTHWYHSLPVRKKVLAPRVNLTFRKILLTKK
Briefly: stopped-flow FRET; Fe(II), 2OG; overall KaSF (Eq. 1); Table 2 rates give about 2.3e5; 50 mM HEPES-KOH pH 7.5, 50 mM KCl, 10 mM MgCl2, 25 °C (titration, 1 uM enzyme per legend); 2 mM EDTA for apo; stopped-flow buffer not printed in the material. The note with it: protein: recombinant; (Ni-chelating column); label: 5'-FAM and 3'-BHQ1 on strand 1; blunt.

The target of series [2] is T1, ALKBH2. Briefly: stopped-flow FRET; Fe(II), 2OG; initial complex k1/k-1; 50 mM HEPES-KOH pH 7.5, 50 mM KCl, 10 mM MgCl2, 25 °C (titration, 1 uM enzyme per legend); 2 mM EDTA for apo; stopped-flow buffer not printed in the material. Particulars: protein: recombinant; (Ni-chelating column); label: 5'-FAM and 3'-BHQ1 on strand 1; blunt.
Series [3] concerns the target T1, ALKBH2. As to the kind of experiment: stopped-flow fluorescence (FRET/εA); Fe(II), 2OG; overall KaSF (Eq. 1); 50 mM HEPES-KOH pH 7.5, 50 mM KCl, 10 mM MgCl2, 25 °C (titration, 1 uM enzyme per legend); 2 mM EDTA for apo; stopped-flow buffer not printed in the material. The note with it: protein: recombinant; (Ni-chelating column); label: 5'-FAM and 3'-BHQ1 on strand 1; blunt.

The target of series [4] is T1, ALKBH2. As to the kind of experiment: stopped-flow εA fluorescence; Fe(II), 2OG; enzyme-product complex after εA repair; 50 mM HEPES-KOH pH 7.5, 50 mM KCl, 10 mM MgCl2, 25 °C (titration, 1 uM enzyme per legend); 2 mM EDTA for apo; stopped-flow buffer not printed in the material. Particulars: protein: recombinant; (Ni-chelating column); blunt.
In series [5] the target is T1, ALKBH2. As to the kind of experiment: Trp fluorescence titration; Fe(II)/2OG complex per Figure 2 legend (text says ALKBH2); 50 mM HEPES-KOH pH 7.5, 50 mM KCl, 10 mM MgCl2, 25 °C (titration, 1 uM enzyme per legend); 2 mM EDTA for apo; stopped-flow buffer not printed in the material. The note with it: protein: recombinant; (Ni-chelating column); blunt.
The target in series [6] is T1, ALKBH2. As to the kind of experiment: stopped-flow FRET; Fe(II), 2OG; overall KaSF (Eq. 1); 50 mM HEPES-KOH pH 7.5, 50 mM KCl, 10 mM MgCl2, 25 °C (titration, 1 uM enzyme per legend); 2 mM EDTA for apo; stopped-flow buffer not printed in the material. The note with it: protein: recombinant; (Ni-chelating column); label: 5'-FAM and 3'-BHQ1 on strand 1; blunt.
In series [7] the target is T1, ALKBH2. As to the kind of experiment: stopped-flow FRET; Fe(II), 2OG; enzyme-product complex after m1A repair; 50 mM HEPES-KOH pH 7.5, 50 mM KCl, 10 mM MgCl2, 25 °C (titration, 1 uM enzyme per legend); 2 mM EDTA for apo; stopped-flow buffer not printed in the material. Particulars: protein: recombinant; (Ni-chelating column); label: 5'-FAM and 3'-BHQ1 on strand 1; blunt.

In series [8] the target is T1, ALKBH2. Briefly: stopped-flow FRET; Fe(II), 2OG; enzyme-product complex after εA repair; 50 mM HEPES-KOH pH 7.5, 50 mM KCl, 10 mM MgCl2, 25 °C (titration, 1 uM enzyme per legend); 2 mM EDTA for apo; stopped-flow buffer not printed in the material. Particulars: protein: recombinant; (Ni-chelating column); label: 5'-FAM and 3'-BHQ1 on strand 1; blunt.

B1: m3C_FRET (dsDNA)
DNA 1: ACAGGATCCGGCATA
DNA 2: TATGCCGGATCCTGT
modifications: N3-methylcytosine at position 9 of strand 1
As to B1, the values for the Ka with ALKBH2 [1] and with ALKBH2 [2] were 460000 M⁻¹ and 230000 M⁻¹, respectively.

B2: εA_FRET (dsDNA)
DNA 1: ACAGGATCCGGCATA
DNA 2: TATGCCGGATCCTGT
modifications: 1,N6-ethenoadenine at position 6 of strand 1
With B2, the figures for the Ka in the series with ALKBH2 [3] and in the series with ALKBH2 [2] were 1.9e+06 M⁻¹ and 860000 M⁻¹, respectively.

B3: undamaged 15 nt duplex (A instead of m1A); also product A of m1A or εA repair (dsDNA)
DNA 1: ACAGGATCCGGCATA
DNA 2: TATGCCGGATCCTGT
With B3, the Kd with ALKBH2 [4] stood at 2200 ± 100 nM; with ALKBH2 [5], 7800 ± 1200 nM.

B4: m1A_FRET (dsDNA)
DNA 1: ACAGGATCCGGCATA
DNA 2: TATGCCGGATCCTGT
modifications: N1-methyladenine at position 6 of strand 1
Consider B4, for which the Ka in the series with ALKBH2 [6] amounted to 600000 M⁻¹.

B5: repaired product of m1A_FRET or εA_FRET (dsDNA)
DNA 1: ACAGGATCCGGCATA
DNA 2: TATGCCGGATCCTGT
Take B5: the Kd with ALKBH2 [7] was determined as 1400 ± 200 nM; with ALKBH2 [8], 400 ± 10 nM.

By Kd is commonly meant the constant that tells how readily two partners part at equilibrium.

The values above are taken from PMC9370705, “Conformational Dynamics of Human ALKBH2 Dioxygenase in the Course of DNA Repair as Revealed by Stopped-Flow Fluorescence Spectroscopy”.
